Values of other authors in article PMC12731121.

Assays:
MIF (Homo sapiens) = MIF (Homo sapiens) (UniProt P14174)
[1] = biological target: D-dopachrome tautomerase (MIF-2) (Homo sapiens) (UniProt P30046)
[2] = biological target: Cathepsin L (Homo sapiens) (UniProt P07711)
[3] = biological target: Cathepsin H (Homo sapiens) (UniProt P09668)
[4] = biological target: Cathepsin S (Homo sapiens) (UniProt P25774)
Sequence of Cathepsin S (Homo sapiens) (P25774 115-331): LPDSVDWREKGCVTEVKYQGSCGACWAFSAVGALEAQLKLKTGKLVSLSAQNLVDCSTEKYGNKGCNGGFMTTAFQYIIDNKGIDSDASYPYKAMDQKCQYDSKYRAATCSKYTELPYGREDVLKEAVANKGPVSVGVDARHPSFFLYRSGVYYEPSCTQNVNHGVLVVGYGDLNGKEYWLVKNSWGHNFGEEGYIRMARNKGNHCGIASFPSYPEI

Sequence of CD74 p41 thyropin domain (P04233 210-271): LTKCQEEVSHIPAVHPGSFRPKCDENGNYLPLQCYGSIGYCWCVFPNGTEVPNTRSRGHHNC
Sequence of CD74 (P04233 73-296): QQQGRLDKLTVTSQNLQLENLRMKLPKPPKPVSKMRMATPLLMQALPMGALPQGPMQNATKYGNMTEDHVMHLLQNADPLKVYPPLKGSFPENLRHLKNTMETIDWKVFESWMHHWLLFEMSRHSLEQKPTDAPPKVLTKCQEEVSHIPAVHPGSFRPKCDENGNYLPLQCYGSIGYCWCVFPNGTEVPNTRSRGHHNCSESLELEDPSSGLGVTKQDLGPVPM
Sequence of Cathepsin L (Homo sapiens) (P07711 292-333): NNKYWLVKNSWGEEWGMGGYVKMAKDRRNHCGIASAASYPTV
Sequence of Cathepsin H (Homo sapiens) (P09668 whole entry, looked up): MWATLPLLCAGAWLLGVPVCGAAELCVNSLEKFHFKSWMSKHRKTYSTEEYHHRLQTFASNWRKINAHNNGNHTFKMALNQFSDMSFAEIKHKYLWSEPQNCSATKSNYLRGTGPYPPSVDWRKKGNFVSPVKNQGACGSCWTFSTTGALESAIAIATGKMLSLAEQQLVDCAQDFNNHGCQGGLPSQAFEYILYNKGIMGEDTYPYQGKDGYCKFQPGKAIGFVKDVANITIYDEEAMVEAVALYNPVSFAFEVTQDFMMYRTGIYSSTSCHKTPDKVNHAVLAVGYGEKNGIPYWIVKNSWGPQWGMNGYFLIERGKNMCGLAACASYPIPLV
Sequence of D-dopachrome tautomerase (MIF-2) (Homo sapiens) (P30046 2-118): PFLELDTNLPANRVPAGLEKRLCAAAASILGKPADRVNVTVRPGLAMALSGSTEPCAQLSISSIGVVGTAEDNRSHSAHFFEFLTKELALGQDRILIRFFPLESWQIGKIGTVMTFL
Sequence of MIF (Homo sapiens) (P14174 2-115): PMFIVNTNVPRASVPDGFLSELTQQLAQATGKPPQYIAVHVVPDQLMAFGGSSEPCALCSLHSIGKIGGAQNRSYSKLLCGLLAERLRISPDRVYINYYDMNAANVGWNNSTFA

Kd (MIF (Homo sapiens)) [nM]	Kd [1] [nM]	Ki [2] [nM]	Ki [3] [nM]	Ki [4] [nM]	Substance
1.4	5.4				CD74 (from UniProt P04233)
		0.0017	5.3	208	CD74 p41 thyropin domain (from UniProt P04233)
